Results: PMC4497409, “Structure and functional properties of Norrin mimic Wnt for signalling with Frizzled4, Lrp5/6, and proteoglycan” (eLife, 2015)
Values joined by “and” are separate entries in the source; they are usually repeats but may differ in a detail not shown here. Identical values can stand only once.

T1: Frizzled8 cysteine-rich domain, mouse (mouse, UniProt Q61091 30-170)
T1 sequence (looked up): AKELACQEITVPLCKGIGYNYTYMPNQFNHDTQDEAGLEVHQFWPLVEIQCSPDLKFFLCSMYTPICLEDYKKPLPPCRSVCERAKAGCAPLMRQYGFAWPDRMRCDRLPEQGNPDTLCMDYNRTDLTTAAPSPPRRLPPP

T2: Lrp6 ectodomain fragment comprising the first two tandem beta-propeller-epidermal growth factor-like domain … (human, UniProt O75581 20-631)
T2 construct: signal peptide in the construct; low-density lipoprotein receptor related protein 6, human, residues 1-631 (P1E1P2E2)
T2 sequence (looked up): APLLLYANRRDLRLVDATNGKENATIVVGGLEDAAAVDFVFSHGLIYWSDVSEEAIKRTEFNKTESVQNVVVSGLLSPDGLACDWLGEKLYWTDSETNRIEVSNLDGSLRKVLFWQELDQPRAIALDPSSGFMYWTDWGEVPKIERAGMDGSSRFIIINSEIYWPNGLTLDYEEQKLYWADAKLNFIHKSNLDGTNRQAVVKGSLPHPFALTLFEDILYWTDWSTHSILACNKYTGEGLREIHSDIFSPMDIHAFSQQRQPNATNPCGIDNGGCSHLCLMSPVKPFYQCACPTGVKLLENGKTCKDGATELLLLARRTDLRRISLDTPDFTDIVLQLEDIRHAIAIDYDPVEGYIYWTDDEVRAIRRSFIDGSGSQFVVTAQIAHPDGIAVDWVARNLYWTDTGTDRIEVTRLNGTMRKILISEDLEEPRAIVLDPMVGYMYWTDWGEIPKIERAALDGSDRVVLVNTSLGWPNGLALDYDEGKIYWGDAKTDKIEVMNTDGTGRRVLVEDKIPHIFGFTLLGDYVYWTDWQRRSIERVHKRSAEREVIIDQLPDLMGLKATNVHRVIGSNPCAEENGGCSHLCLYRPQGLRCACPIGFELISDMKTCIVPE

T3: Frizzled5 cysteine-rich domain, mouse (mouse, UniProt Q9EQD0 31-176)
T3 sequence (looked up): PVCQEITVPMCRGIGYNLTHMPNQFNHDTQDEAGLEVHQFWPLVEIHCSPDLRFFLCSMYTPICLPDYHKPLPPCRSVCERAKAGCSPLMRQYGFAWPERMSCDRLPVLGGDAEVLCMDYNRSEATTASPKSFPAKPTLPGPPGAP

B1: Frizzled4 cysteine-rich domain (Fz4CRD), human (domain or fragment, UniProt Q9ULV1 42-179, looked up)
chain: ERRCDPIRISMCQNLGYNVTKMPNLVGHELQTDAELQLTTFTPLIQYGCSSQLQFFLCSVYVPMCTEKINIPIGPCGGMCLSVKRRCEPVLKEFGFAWPESLNCSKFPPQNDHNHMCMEGPGDEEVPLPHKTPIQPGE
modifications: N-linked glycans at Asn59 and Asn144 (full, or cut to N-acetylglucosamine by Endo-F1)
notes: Frizzled4 cysteine-rich domain, human, residues 42-179; Glycosylated and deglycosylated samples of the same construct are kept as one molecule; the assay's format tells which was used; also called human Fz4CRD; source: HEK293T, secreted, purified (IMAC, HRV-3C cleavage, IMAC, SEC); with kifunensine and Endo-F1 treatment for crystallisation and the deglycosylated samples; fully glycosylated for …

Legend:
[1] = biological target: T1, Frizzled8 cysteine-rich domain, mouse; experiment: SPR; Biacore T200, 25 C, 10 mM HEPES, pH 7.5, 0.15 M NaCl, 0.005% Tween20; biotinylated Norrin variants captured on streptavidin coupled to a CM5 chip; glycosylated FzCRD proteins or Lrp6 P1E1P2E2 as analytes; equilibrium binding, 1:1 Langmuir model; whether the biotinylated Norrin was purified before capture is not told
[2] = biological target: T2, Lrp6 ectodomain fragment comprising the …; experiment: as above
[3] = biological target: T3, Frizzled5 cysteine-rich domain, mouse; experiment: as above
[4] = biological target: B1; experiment: as above
[5] = biological target: T4, Norrin R107E/R109E/R115L (in the Norrin R107E/R109E/R115L-Fz4CRD complex) (human, UniProt Q00604 25-133, R107E | R109E | R115L); experiment: SEC-MALS; Norrin-Fz4CRD complex at 25 uM (glycosylated and deglycosylated), without SOS, on Superdex S200 10/300 GL in 10 mM HEPES, pH 7.5, 0.15 mM NaCl (so in the source); conditions: both partners purified
T4 construct: Norrin, human, UniProtKB/Swiss-Prot Q00604, residues 25-133; source: HEK293T, complex with Fz4CRD, purified (SEC)

[6] = biological target: T5, Norrin (Norrie Disease Protein), recombinant wild-type after removal of the SUMO fusion tag (human, UniProt Q00604 25-133); experiment: SAXS; deglycosylated Norrin-Fz4CRD complex at 1.02 and 2.14 mg/ml in 10 mM HEPES, 0.5 M NaCl, without SOS; 293 K; conditions: both partners purified
T5 construct: Norrin (Norrie Disease Protein), human, UniProtKB/Swiss-Prot Q00604, residues 25-133; Disulphide-linked homodimer (Cys93-Cys95, Cys95-Cys93, Cys131-Cys131); also called untagged Norrin; Norrin wild-type; source: for the complex co-expressed with Fz4CRD in HEK293T with kifunensine and valproic acid, purified (IMAC, SEC); not shown: Strep-II, N-terminal, cleaved; His8, N-terminal, cleaved; SUMO (S. …)

Kd [1] [µM]	Kd [2] [µM]	Kd [3] [µM]	Kd [4]	stoichiometry N [5]	stoichiometry N [6]	Binder
64	2.87	42	1.1 µM and 1 µM			Biotinylated human Norrin wild-type (pHL-Avitag3 construct) (ligand, UniProt Q00604 25-133, looked up, biotin on the C-terminal BirA recognition sequence (in vivo biotinylation), Norrin (Norrie Disease Protein), human, UniProtKB/Swiss-Prot Q00604; The same plasmids were used in the luciferase reporter assays; also called Norrin WT; source: HEK293T, co-transfected with BirA-ER for in vivo biotinylation, secreted) KTDSSFIMDSDPRRCMRHHYVDSISHPLYKCSSKMVLLARCEGHCSQASRSEPLVSFSTVLKQPFRSSCHCCRPQTSKLKALRLRCSGGMRLTATYRYILSCHCEECNS
				2 Fz4CRD per Norrin dimer (printed 2:2)	2 Fz4CRD per Norrin dimer (printed 2:2)	B1
